The text below walks through data of a protein production outcome set (Wang et al. 2014).

This data set can be described thus: label from the status in PepcDB records.
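Further: failed if final PepcDB status was selected cloned or expressed and not failed if soluble or beyond.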

For “MRFIITLFLILQLTTLAFSAHSRDKIGLVLSGGGAKGSAHIGVLKVLEQHNIPIDYVVGTSIGAYVGGMYALGYEVSEIEAIMLGMPWDESYSDFIPRESLAYDKKQHRDRYNISIRLGYSDGEFKVPHGLLLGQSAYQILQRSTDTVRSFDSFDDLAIPYRAVASDIATAKMVVLDSGSINEAMKASAAVPGIVAAVEIDGKTLVDGGITNNMPIDVIKAMGADIVIAIDIGSPLAEQSELTSTVSVLNQLSTILTNNTSLAQKALLTDKDILLRPAIDKLSTTDWSVMPEALKLGEQEAQAQSQALMKLAISDVDYQAYKNQKKLKAKKWFDALPRHITKIKINNNSKVENDIIEKVFAVELGKKLTKEALDLAINRVYALDKFEQVTVEFDDSPEGRIITLTTQAKSWGPNYFDFGFNLKTDFSDQSITSINMSYLMTNVSMNGGRWLNELELGWESLLASEFYQPLDHSHDIYSRARVSFAQDKWEKTSFREELRNEYYQATLALGYDYSFKGIIELGVIAETGDLSLDKPGTDDFDYDSYGSFITFGYDTLDSINFPTNGNKLLIEVKWLKDEYSPQLSDVEKDTATTFALDWRGAIGIRGHTFVGIASFATIDNESDFSVHVTELGGFLNLSGYQEDALIGVHKVFAAVVYQYDLGREIPGGSGLPIYLGTSLEAGNVWGGEDRIRYNDLISSGSIYLGTDTSFGPAVLGMGFATSGEHSFFLSIGKNW”, the protein production result is “failed”.

As to “MRFSQLLLALCCLTFGAQADVFIKQEDMDLKQALEAIAKDMQLKLVSDIDSKTSSQPITQTLSGSGPMLLSKLSSVFDFDWYTFGGTLTIQSGQQYANYTYKPKNISPSQLLSEMKGAFKTNSTTKIKLVERGHSLLFSGTRKFVNDAMGYASMVDRNQFLEKGNNLEVARIEFNYVSVMDRNIATYDGQVNFPGAQSLIAAAITNIGQFTNLNDEELTSRAYRVKLSQGEKQALEEDEKSTKVQALPGTNALLIRGTQEEVKLAKRIAALIDVKRRQLLFSLKVYDISAERKENLGIDSGWLNGNRGIYDIVVPPFTETKDFVKNFQALYSNGIARSVYETNLVALENQQSQFGKKQTATLTLISDKQVKTEKIEADNSLYVTGRLLPSGQVQARIQYVEESLDEDDNEDSNRPPRVSSQSLNSEVYIQPNQTVILGGFDNTVTQQQESGVPIISSIPLLGELFKYTSESKHKYKRYVSISFQVIE”, the protein production entry is given as “failed”.

Regarding “MRFSYIEPRAKYLISKLSKIWVFYIFLSFVVIGGLVWFMHNAIKSTQDNASSLTIQERLYRHEISRLQVKTDETLKLIKEAKKRLNYNDDIRDVLQGLLNIVPDSITINSIEIDQQSVVVSGKTPSKEAFYFLFQNKLNPMFDYSRAEFFPLSDGWFNFVSTNFSNSLLIKNPESIK”, the protein production result is “failed”.

Turning to “MRGANERKTERARGLRQSDNDAEALLWSELRDRRLNGFKFVRQVAVGPYFADFACRDERLVVEVDGSQHQIGSGDARRDKFMVMNGWSVLRFWNTDIFNDRAAVLETIVAVLEKRLVREVRSADLTFIPGEKKR”, the protein production result is recorded as “not failed”.

As to “MRGEGRRIGAMSETPEIPGSGYRTGEALLRAGDIAGAITAFRGHLAASPDDALGWFALGSALFFAQRWEETRAAYARAAAIDRAYTLGGLLRPGDVETALDPAPFLGQLPEMSMIIPPAHSGPLAVVGCDSAYFLDFGAALALSMDKAAPGWGLHLHLIAPTTPALDLLERLIGGLRAITLSFSLEHLPPALRAPEAQRTYLACLRFMRLPAILDEQQARAGRVPVVVLDADSLMCKPLLGPDDWRPPGPEGGWRAGWDVALKDSGLFPLGPLWRYSASCVGLAPTDEARAFAAHVATLLARQALTVNGLGWMIDQFALAVAIAARQTQSPAFRLGDWPDRLYRLYENPPDAALWSFCSQSKYDDRLYRDMVRLLLAEMG”, the protein production entry is reported as “failed”.

Take “MRGKRGFFGHADSRVRLFCRRLTGKQRILLAGTASFLLAASCLYSILSCVSRFGEPGQRPAMGHIRSVVFRPERTRNIHSNIHKHENGLSENQGTARSVK”: the protein production entry is “failed”.

Take “MRGMAANQGERIRRRLSTGERREQLLSVGARLFSESPYDEVWIEQVAEIAGVSRGLLYHYFPNKRDFFAAVVERESERMLRMTAAVPGVPVREQLTAGLDAYLEYVRAHAHGYRAFHRADAAGDRAVRRVYQKALAAQERQILAALAADPEFGPAFEERGDVRLAVRGWLAFTTAVCLEWLRDPEPAREQVRDLCARALLGAVAP”: the protein production result is “not failed”.

For the sequence “MRGPFMGFSIEFGEANLDKLGVRRTSERVSQPPLTLKNYALSRSIGRGNTSDVRLATGPDGREVAIKLPLPATLRQHDAAERFGNEVRLTLQFRHPHVVRGFAGTPFGPGAFLALFYYPDGPLSNRLRGQPLPNEEALRILADIAAALAYLHRLGAVHQDVKPQNVYVSGGRAALGDLGSAYFVAQGSKTSGSPYYMAPEVYHGESTSSASDVYSLGVMAWELLTGARPFSGNSYEELMVAHLSRFPAPLASLRPELPRALSRLLDRTFAKRPHERPTADALRRALLEALGETPQEEDLPAEEVPLASQQAGRHTAAPRVTGPQGPAETPAQPERVRPARRGWNPFRRKG”, the protein production entry is “failed”.

On to “MRGRFFFRSFEATLIGSEFLVSPETPGTRFAKAPSFRSKTEKDLCSAHGAAASGVLPLGLLEELVRSSPRSSQASGPAGSRQPAQRAPGHQVPAAKMLELLVASLSLALAFFALLDGWYLVRVPCAVLRARLLQPRVRDLLAEQRYAGRVLPSDLDLLLHMNNARYLREADVARAAHLTRCGVLGALRDLNAHTVLAASCARYRRSLRLFEPFEVHTRLQGWDDRAFYLEARFVSLRDGFVCALLRFRQHVLGTSPDRVVQHLCKRRVEPPELPEDLKHWISYNETSSQLLRAESGLSDRKDQ”, for which the protein production entry is reported as “failed”.

Turning to “MRGRMTRSQLILAILAGLVISIDNMISIVAFSSLIYQGALEIYIPLVINILAISVIIISASYLFMSSPPYAIAQLQDEAAILYSAMGLVIIKSMPSSSTNEAIFITILFMLGVTTCLTGLSFYFVGKFRFGNIIRYLPYPVICGFMAATGWLVLSGTFALLTGKALHQNWLVFFHKEEILLWAPGFIAGIVVYIFKEKLGYRYALQLMFISLVILFYALFYIFNLEYLVDPTEGYVLGPFNQSHIDSLMKPEIWQMIHYPFSMTLLNYIGLVILVSFIALLLNASSYELIVNKQLDLNKELRIAGIGNVFSGLLGGMVGYLSLSASTVAKEYGGARIIGVMAFVPMLLILCFGAVVVECFPKMAIGCYLFYIAFCFLSEWLINTWRLLNLSEYLIVLLILVIAIVFNMITAVAIGTVISIFIFAFRYSKINPVKYLFSGADYNSSFERNPISQSILSTQGDEIQFLKLQGFLFFGSIYRLLQLIKSIQKARYIILDFELVYNIDSSRIILMKNLKLHAEKNNISFAICSLKPIVYHELMKTNLLQSKTNWLKVFTDQESALEWCEDQVIEKYTENINIEEVTLEKQLLYLGFSSELVAWISEKASIKPYNPDDIICHEGEESNSVYFIHRGRVTAFVGDKRVLVVGSGNVLGEIAIYTHKKRTATLKTNEKTIVYEIDLKSIQELSKNKPLLLVQFHVCMAKILANRLSVLNKRIKVFDSTAILQ”, the protein production entry was “failed”.

Take “MRGWICVKLTKLNIKKYRAPIYKYALANVNLRSAKSTNSSIITVIPQGAKMEVLDEEDDWIKVMYNSQEGYVYKDLVSVSEYAWSNLNLREDKSTTSNIITVIPEKSRVEVLQVDGDWSKVVYDDKIGYVFNYFLSIDGNKPNELDYKYFYTDMIKFVNENNIKSTSDYLIVTDLRNKYTYIFKKDNGGWGQLYKWQCTIGKPETPTITGIFYISGRKPSFGTDEYSVKYATRIKGGYYYHSVLYDSTGSYIIDGRLGEALSHGCIRLSTENAKWIYDNIPDTTTVIIH”: the protein production result was “failed”.

With “MRHISPEELIALHDANISRYGGLPGMSDPGRAEAIIGRVQARVAYEEITDLFEVSATYLVATARGHIFNDANKRTALNSALLFLRRNGVQVFDSPELADLTVGAATGEISVSSVADTLRRLYGSAELEHHHHHH”, the protein production result is “not failed”.

Take “MRHLKSGRKLNRHSSHRLALYRNQAKSLLTHGRITTTVPKAKELRGFVDHLIHLAKRGDLHARRLVLRDLQDVKLVRKLFDEIAPRYRDRQGGYTRVLKLAERRRGDGAPLALVELVE”: the protein production result is listed as “not failed”.

For “MRHMSGDHAALVLGAGAGRRLGRSKQLLMRDGEPLLRRAARIALLTAPRRCVVVLGADADTLSEVLQDLDIEILRHPDWSEGMGSSLAALRRHVQGDPALRRSLILGCDQPALDAPHLRSLLEEADRAVSGCATSGYSGVRGIPAVVTHTAWADVPLQADSGLRGLFASLDMQSLGCVSAPALALDIDTPADLATAQQRGWVDAELEHHHHHH”, the protein production entry is “failed”.

With “MRHRGGRGFRGWWLASTILLLVAEKPSHGYELAERLAEFGIEIPGIGHMGNIYRVLADLEESGFLSTEWDTTVSPPRKIYRITPQGKLYLREILRSLEDMKRRIETLEERIKRVLQEE”, the protein production result is “not failed”.

As to “MRIAAALLAIALTGLSGAVWAETSAAIVARKPDLFHPETGLRIDRQRAPVPEDIPPPARKISALWARKLIARGALALDVYGAAQSRYDELDGTWLVPEPRQSLPGAVWLPEVGRGVLDAALQVYLERELERLTGGSKARAIVVFCVADCWMSWNAAQRIAGMGYLQVYWFPLGTDGWRELGWPLEPVEPVPVPVD”, the protein production entry was “failed”.

As for “MRICMVSDFFYPSIGGVEEHVYNLSQMLLSLGHKIVVLTHAYGDCSGIRYVTGYLKVYYLPIKVCYNQCILPTAVCNVPMLRAVLLRERVEVVHGHSAFSALAHEALMVGSLLGLKTVFTDHSLFGFADLSAALTNNLLEVNLGMVNHAICVSHIGKENTVLRARVAKHRVSVIPNAVDTALFTPDPQQRPSNDIINIVVASRLVYRKGIDLLAGIIPRFKNTPNINFIIVGDGPKRDLLEEIREKTNMQERVQMVGAVEHNRVRDFLVRGHIFLNTSLTEAYCMAIVEAASCGLQVVSTSVGGIPEVLPKSLILLAEPEIDAIYAAILIAIDRHRKSSFKVSPSVGNGHLASDANGKVKRRRRRKVDTPISPTQLPAVSAPPADQNSSTEPVMCPYRCNELVETLYNWEDVALRTVKVYDRVLNERSFTTSELVFAVWQHGSWFLVFFVVAHFLMRLLELWRPRKHVEIAQDVQRRAS”, the protein production entry is “failed”.

With “MRIECYSWSDVSEQILEQAIALQNSAFEDMKGNFYQVDIPYKLVLAIDDNQVIGHVAVYLRDVYLDSFPETIGILSCVVVAHKYRGKGVAASLIKMAHAILKEHSVNFSILFAVSHAYYLSSGYIPMKNLTRFIENNEKKEFIYDGGMVCELGSQNWNVNILELNGEVV”, the protein production result is “failed”.

Turning to “MRIGIMGLGRIGAFHAETLSGLPAVTSLVVTDPFTDAAKSAAERFGAEVADSPEAVLAAGVDGVVVAAATDAHPGLVLAAVEAGVPVFCEKPVARTMREGVAVLEAVRDAGVEIQIGYNRRFDAGFVAARAAVASGELGALHTVRSTTLDPAPPPPAYVAASGGIFRDCSVHDFDIIRWVTGREVVEVYATGGNRGADYIAAAGDADTTAAVLTLDDGTLAVVSNSRHNARGHDVRMELHGFRDSIAVGLEDRLPLRSVEPGTSFPAGTPHDFFMDRFAAAYRAELTAFTEVVAGRRPSPCTVADALEAGWIAEACTLSLHSHRPVTVEEVRRQS”, the protein production entry is “failed”.

For “MRIIAITEKVIKELFRDKRTLAMMFLAPILIMFLMNVMFSANSNTKVKIGTINVNTKVVSNLDNIKHIQVRSFKFNSSAKKALKSNKIDALISEDNKSYTVFYANTDSSKTTLTRQAFKTAVNTMNSKELISQVKILANKNPKLAQSLQTRSKYIKEKYNYGNKNTGFFAKMIPILMGFMVFFFVFLISGMALLKERTSGTLDRLLATPVKRSDIVFGYMLSYGILAIIQTIVIVLSTIWLLDIQVVGSIFSVIIVNFILALVALSLGILMSTLAKSEFQMMQFIPLIIMPQLFFSGIIPLENMASWAQTVGKILPLSYSGDALTKIIMYGQGLPNVSSNLLVLLLFLIILTIANIFGLKRYRKV”, the protein production entry is “failed”.
